Tested on: MS2 coat protein
Experiment: apparent KD of MS2 coat protein; designed switch direction (-1 OFF switch, 1 ON switch): 1; higher = weaker reporter binding
How it was run: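 Transcription of designed RNA switches on Illumina chips was done by stalled E. coli RNA polymerase. SNAP-549-labelled MS2 coat protein was then titrated in doubling steps from 0.7 or 1.5 nM to 3 µM, with steps of 0.8–1.5 h at the lowest and 10–20 min at the highest concentration. The per-design median over clusters of curve-fitted normalised fluorescence is reported as apparent KD.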

[1] = input ligand: microRNA oligo, concentration not stated
[2] = Eterna round: R95, input ligand: FMN 200 uM
[3] = Eterna round: R95, input ligand: microRNA oligo, concentration not stated
[4] = Eterna round: R95, input ligand: none

Row | Sequence | apparent KD of MS2 coat protein (input ligand: FMN 200 uM) [nM] | apparent KD of MS2 coat protein [1] [nM] | apparent KD of MS2 coat protein (input ligand: none) [nM] | apparent KD of MS2 coat protein [2] [nM] | apparent KD of MS2 coat protein [3] [nM] | apparent KD of MS2 coat protein [4] [nM]
1 | GAGCCAGUCCGAGGAUAUUCAUAUUAAAACAUGAGGAUCACCCAUGUAGGCUCAGAAGAGCCUUGGGAGAAGGCGGACUGGCUC [Xeonanisa] (Eterna round: R96, puzzle: Same State NG 2) | 23.3 | 214 | 366 |  |  | 
2 | CGGGUACAUGAGGAUCACCCAUGUGGGAGAGAUGCAGGAUAUGUGGGAAAAGGGAAUGUAACAGAAGGGCAAGGAG [JR_SS!_Sub015] (puzzle: Same State 1) |  |  |  | 220 | 128 | 124
3 | GACUAUCUAUCUCAGGAUAUCAUGUCAAAGACAUGAGGAUCACCCAUGUACCAGGAAACUGGUUAUGAGAAGGGAGAUAGAUAGG [Mat - Same State 2 - Mod - D43] (puzzle: Same State 2) |  |  |  | 81.1 | 26.3 | 38.8
4 | AGAUCAUGACGAGGAUAUGGUACAUGAGGAUCACCCAUGUAUGUACCACGACGGAAACGUCGAAUCCAGAAGGCGUCAUGAUCA [Mat - Same State NG 2 - JL mod - D24] (Eterna round: R96, puzzle: Same State NG 2) | 30.5 | 109 | 130 |  |  | 
5 | GAGUUACUAUCUCAGGAUAUCAUGUCAAAGACAUGAGGAUCACCCAUGUACCAGGAAACUGGUUAUGAGAAGGGAGAUAGUAACG [Mat - Same State 2 - Mod - D52] (puzzle: Same State 2) |  |  |  | 112 | 116 | 154
6 | GUUACAUGAGGAUCACCCAUGUAUGUGUGGGAGUAAGUGUCUUAGGAUAUCUAGUAUUUAACUUAAGAGAAGGAAGAUUGUUGU [JMF's solution 63] (Eterna round: R96, puzzle: Same State NG 3) | 142 | 95.8 | 105 |  |  | 
7 | CGUGGGUGGCUGGAGGAUAUUCGAGUGGUAACAUGAGGAUCACCCAUGUGUCGCGCGGUACACGAGGAGAAGGCUGGCGGCCGGC (puzzle: Same State 2) |  |  |  | 34.6 | 109 | 256
8 | AUUGCUUUCGCAGGAUAUGAUGCGAAAAUUGCGUCAGAAGGGUGGAGUAUCUCAUUGCAACAGGACAUGAGGAUCACCCAUGUC [SameState NG1 #88] (Eterna round: R96, puzzle: Same State NG 1) | 56.7 | 140 | 248 |  |  | 
9 | UGGCUCAGACUAGGAUAUAUGCGAUCACAUGAGGAUCACCCAUGUCUCGAGCUUCGGCUCGAGGCAUAGAAGGAGUCUGAGCCU [SSNG2/4-D3] (Eterna round: R96, puzzle: Same State NG 2) | 14.8 | 35.5 | 46.7 |  |  | 
10 | AAGCUCGUGUGAGGAUAUGCCGCCGUUUCGGCUGCAGAAGGUGCUACGUUACAUGAGGAUCACCCAUGUCUCUGUUGUUUCGUA [salish99_SSNG1_r04_952] (Eterna round: R96, puzzle: Same State NG 1) |  | 37 |  |  |  | 
11 | AUAAAACAUGAGGAUCACCCAUGUCAAUAAAGUCGAGGAUAUGGGCAAAUAAAAUAAGAACCAGAAGGCGAAUAAU [salish99_ss1_r3_042] (puzzle: Same State 1) |  |  |  | 33.2 | 217 | 206
12 | GCUCGUGGUAUUGUCUACAUGAGGAUCACCCAUGUGGGUGCGGAGGAUAUCUACGUGUCUCAUGUAGAGAAGGUCGUCACGAGC [SameState NG3 #100] (Eterna round: R96, puzzle: Same State NG 3) | 119 | 119 | 102 |  |  | 
13 | GGAGCCGGCACCGAGGAUAUUCAUAUUAAAACAUGAGGAUCACCCAUGUAGAGCGAAAGCUCUUGGGAGAAGGCGGAUCGGCUCG [Xeonanis - 28] (Eterna round: R96, puzzle: Same State 2) | 34.6 | 488 | 665 |  |  | 
14 | GGUCCGGCCUGAGCUGGACCGAAGCAUGUACAUGAGGAUCACCCAUGUCAUGUACAGGCUUUUUGCUCGUCUUAUUG [JL-shm-2.13 JL Mod] (puzzle: Sensor for hsa-mir-208a) |  |  |  | 705 | 14.4 | 683
15 | CGUCCGGCCUGAGCUGGACGGAGGCAUGUACAUGAGGAUCACCCAUGUUCAUGUGCAGGCUUUUUGCUCGUCUUGUG [JL-shm-2.07 JL mod] (puzzle: Sensor for hsa-mir-208a) |  |  |  | 53 | 10.9 | 54.2
16 | UAGUACAAGCUUUUUGCUUGUCUUAUUUAACAUGAGGAUCACCCAUGUAAGUUGAAAGUUAGAGAGUGCACCUUCAA [JR_SHM208A_Sub052] (puzzle: Sensor for hsa-mir-208a) |  |  |  | 18.7 | 18.9 | 17.1
17 | GCGUGAGAGAUAGGAUAUCGUGUACCUACAUGUGACAUGAGGAUCACCCAUGUGGUAAGUAUGAGCGAGAAGGAUCCGAUAUGU [salish99_SSNG2_r04_1003] (Eterna round: R96, puzzle: Same State NG 2) | 28.2 | 54.7 | 63.5 |  |  | 
18 | UUUCCAUAGAUAGGAUAUCAGUUUACAUGAGGAUCACCCAUGUUCUCUUUGGUUUUAAUUUUUUCUGAGAAGGAUCUUGAUGAA [JR_SSNG2_Sub001] (Eterna round: R96, puzzle: Same State NG 2) | 20.6 | 17.7 | 25.1 |  |  | 
19 | AUAGUUUCCGAAGGAUAUGAUGAGGAUCACCCAUCAGAAGGUUGGCUAUUGGGCUGACAUGAGGAUCACCCAUGUUCUGGUGUU (Eterna round: R96, puzzle: Same State NG 1) | 39.1 | 33.2 | 57 |  |  | 
20 | AAAGCACAUGAGGAUCACCCAUGUGGAAAUAACACAGGAUAUCUGACCGAAACUAAGGCGAGAGAAGGGUGACCUA [Engeerbi] (puzzle: Same State 1) |  |  |  | 148 | 62.8 | 78.9
21 | AAGAAGACGGACAAGGAUAUGUCAAAGGAAACAUGAGGAUCACCCAUGUGGAGAUUGGAAAAGAAACAGAAGGUGUACGGAGAGA [JR_SS2_Sub007] (puzzle: Same State 2) |  |  |  | 10.6 | 12.3 | 29.3
22 | CGGGAAAUCGUAGGAUAUCUAGGAUAUGAACGAGGAUCACCCGAGCAGCAUCAGCGCAUCAGAGGAGAGAAGGACGAUGAUGCG [pwkr ssNG2 2F5 2FMN.17] (Eterna round: R96, puzzle: Same State NG 2) | 327 | 273 | 65.7 |  |  | 
23 | GCAUCACAUGAGGAUCACCCAUGUCUUCGGAGUGGAGGAUAUGGUCACUGUAAACAGUGGCCAGAAGGCCGGAUGC [SS1 - Son of Teenbexe v2] (puzzle: Same State 1) |  |  |  |  | 63.3 | 
24 | UGGCUCAGACGAGGAUAUAUGUAAUAACAUGAGGAUCACCCAUGUGUCGAGCUUCGGCUCGACACAUAGAAGGCGUCUGAGCCA [SSNG2/2-A2] (Eterna round: R96, puzzle: Same State NG 2) | 14.7 | 17.9 | 28.2 |  |  | 

— the supplement of paper PMC9170038
